Data on seven molecules can be found in patent US20090226432A1 (MICROMET, published 2009).

Assay [1] has as its target T1, soluble human CEA antigen (human, UniProt P06731 35-685, limits assumed, biotinylated with EZ-Link Sulfo NHS-LC-LC-Biotin in the ELISA (not in the cytotoxicity competition assays)).
T1 construct: also called soluble CEA; soluble biotinylated human CEA (Abcam)
T1 sequence: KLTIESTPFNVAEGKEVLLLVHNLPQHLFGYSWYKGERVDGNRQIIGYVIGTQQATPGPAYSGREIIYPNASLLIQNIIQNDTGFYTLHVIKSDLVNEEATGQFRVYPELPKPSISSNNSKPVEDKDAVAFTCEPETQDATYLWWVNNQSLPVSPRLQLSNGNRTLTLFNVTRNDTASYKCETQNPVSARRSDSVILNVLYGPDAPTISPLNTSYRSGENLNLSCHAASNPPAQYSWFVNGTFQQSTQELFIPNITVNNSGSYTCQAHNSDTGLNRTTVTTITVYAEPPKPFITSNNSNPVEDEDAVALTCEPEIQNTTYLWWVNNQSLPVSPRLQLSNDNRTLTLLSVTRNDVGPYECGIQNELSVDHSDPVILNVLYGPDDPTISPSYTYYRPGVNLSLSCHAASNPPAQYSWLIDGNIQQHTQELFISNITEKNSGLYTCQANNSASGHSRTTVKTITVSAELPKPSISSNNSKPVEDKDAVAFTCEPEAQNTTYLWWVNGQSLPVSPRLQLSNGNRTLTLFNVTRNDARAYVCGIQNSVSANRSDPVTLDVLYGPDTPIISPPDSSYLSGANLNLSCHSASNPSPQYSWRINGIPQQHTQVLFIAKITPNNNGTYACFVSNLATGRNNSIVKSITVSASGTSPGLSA
Briefly: refers to the ELISA of FIG. 2.

The target in assay [2] is T1, soluble human CEA antigen. Briefly: direct ELISA, biotinylated soluble CEA on streptavidin plate; 0.5 and 5 ug/ml. Here is the method:
The direct ELISA to determine the specificity of CEA×CD3 bispecific single chain antibody against soluble human CEA was carried out according to standard procedures. Briefly, 50 μl/well PBS or soluble biotinylated human CEA (Abcam; 5 μg/ml in 1×PBS) were immobilized on a 96-well streptavidin-coated ELISA plate (Nunc) by incubating at 4° C. for about 16 hours. After washing with 200 μl water per well 200 μl of blocking solution (PBS/3% BSA) was added. After blocking for 1 h at room temperature the blocking solution was removed. All subsequent washing (200 μl/well of 1×PBS/0.05% (v/v) Tween20) and incubation steps were performed at room temperature. After washing once, the CEAI VHVL×SEQ ID NO.77 VHVL (SEQ ID NO. 8; anti-CEA part derived from mAb A5B7), CEAII VHVL×SEQ ID NO.77 VHVL (SEQ ID NO. 10; anti-CEA part derived from mAb T84.66), and CEAIII VHVL×SEQ ID NO.77 VHVL (SEQ ID NO. 14; anti-CEA part derived from mAb MFE-23) bispecific single chain antibodies, and mouse monoclonal antibody CEA/CD66 Ab-3 (Col-1; Dunn) were incubated in different concentrations (0.5 μg/ml and 5 μg/ml in 1×PBS; 50 μl/well) for 1 hour. 1×PBS (50 μl/well) was added as a control for unspecific binding. 3 washing steps were followed by adding 50 μl/well Penta-His IgG (Qiagen; 2 μg/ml in 1×PBS) for detection of the His-tagged bispecific single chain antibodies. Subsequently, the wells were washed 3 times and incubated with 50 μl of a horseradish peroxidase-labelled goat anti-mouse Fc gamma-specific antibody (Jackson ImmuneResearch; 1:1000 in 1×PBS) for 1 hour. After washing 3 times the ELISA was developed by adding ABTS substrate solution (Roche) and the absorbance was measured at a wavelength of 405 nm.

The target in assay [3] is T1, soluble human CEA antigen. Briefly: refers to Examples 2 and 3 (flow cytometry, ELISA).

B1: CEA I VLVH x SEQ ID NO. 77 VHVL (bispecific antibody)
chain: DIELTQSPAILSASPGEKVTMTCRASSSVTYIHWYQQKPGSSPKSWIYATSNLASGVPARFSGSGSGTSYSLTISRVEAEDAATYYCQHWSSKPPTFGGGTKLEIKGGGGSGGGGSGGGGSQVQLQESGGGLVQPGGSLRLSCATSGFTFTDYYMNWVRQPPGKALEWLGFIGNKANGYTTEYSASVKGRFTISRDKSQSILYLQMNTLRAEDSATYYCTRDRGLRFYFDYWGQGTTVTVSSGGGGSDVQLVQSGAEVKKPGASVKVSCKASGYTFTRYTMHWVRQAPGQGLEWIGYINPSRGYTNYADSVKGRFTITTDKSTSTAYMELSSLRSEDTATYYCARYYDDHYCLDYWGQGTTVTVSSGEGTSTGSGGSGGSGGADDIVLTQSPATLSLSPGERATLSCRASQSVSYMNWYQQKPGKAPKRWIYDTSKVASGVPARFSGSGSGTDYSLTINSLEAEDAATYYCQQWSSNPLTFGGGTKVEIK
notes: Bispecific single chain antibody; anti-CEA part from murine mAb A5B7; also called CEA I-LH
As to B1, the binding result in assay [1] is reported as “binds”.

B2: SEQ ID NO. 77 VHVL x CEA I VLVH (bispecific antibody)
chain: DVQLVQSGAEVKKPGASVKVSCKASGYTFTRYTMHWVRQAPGQGLEWIGYINPSRGYTNYADSVKGRFTITTDKSTSTAYMELSSLRSEDTATYYCARYYDDHYCLDYWGQGTTVTVSSGEGTSTGSGGSGGSGGADDIVLTQSPATLSLSPGERATLSCRASQSVSYMNWYQQKPGKAPKRWIYDTSKVASGVPARFSGSGSGTDYSLTINSLEAEDAATYYCQQWSSNPLTFGGGTKVEIKSGGGGSDIELTQSPAILSASPGEKVTMTCRASSSVTYIHWYQQKPGSSPKSWIYATSNLASGVPARFSGSGSGTSYSLTISRVEAEDAATYYCQHWSSKPPTFGGGTKLEIKGGGGSGGGGSGGGGSQVQLQESGGGLVQPGGSLRLSCATSGFTFTDYYMNWVRQPPGKALEWLGFIGNKANGYTTEYSASVKGRFTISRDKSQSILYLQMNTLRAEDSATYYCTRDRGLRFYFDYWGQGTTVTVSS
notes: Bispecific single chain antibody, anti-CD3 part N-terminal, anti-CEA part from mAb A5B7
Regarding B2, the binding result in assay [1] is “binds”.

B3: CEA I VHVL x SEQ ID NO. 77 VHVL (bispecific antibody)
chain: QVQLQESGGGLVQPGGSLRLSCATSGFTFTDYYMNWVRQPPGKALEWLGFIGNKANGYTTEYSASVKGRFTISRDKSQSILYLQMNTLRAEDSATYYCTRDRGLRFYFDYWGQGTTVTVSSGGGGSGGGGSGGGGSDIELTQSPAILSASPGEKVTMTCRASSSVTYIHWYQQKPGSSPKSWIYATSNLASGVPARFSGSGSGTSYSLTISRVEAEDAATYYCQHWSSKPPTFGGGTKLEIKSGGGGSDVQLVQSGAEVKKPGASVKVSCKASGYTFTRYTMHWVRQAPGQGLEWIGYINPSRGYTNYADSVKGRFTITTDKSTSTAYMELSSLRSEDTATYYCARYYDDHYCLDYWGQGTTVTVSSGEGTSTGSGGSGGSGGADDIVLTQSPATLSLSPGERATLSCRASQSVSYMNWYQQKPGKAPKRWIYDTSKVASGVPARFSGSGSGTDYSLTINSLEAEDAATYYCQQWSSNPLTFGGGTKVEIK
notes: Bispecific single chain antibody; also called CEA I-HL
Take B3: the binding result in assay [2] is on record as “binds”.

B4: CEA III VLVH x SEQ ID NO. 77 VHVL (bispecific antibody)
chain: ENVLTQSPAIMSASPGEKVTITCSASSSVSYMHWFQQKPGTSPKLWIYSTSNLASGVPARFSGSGSGTSYSLTISRMEAEDAATYYCQQRSSYPLTFGAGTKLELKGGGGSGGGGSGGGGSQVKLQQSGAELVRSGTSVKLSCTASGFNIKDSYMHWLRQGPEQGLEWIGWIDPENGDTEYAPKFQGKATFTTDTSSNTAYLQLSSLTSEDTAVYYCNEGTPTGPYYFDYWGQGTTVTVSSGGGGSDVQLVQSGAEVKKPGASVKVSCKASGYTFTRYTMHWVRQAPGQGLEWIGYINPSRGYTNYADSVKGRFTITTDKSTSTAYMELSSLRSEDTATYYCARYYDDHYCLDYWGQGTTVTVSSGEGTSTGSGGSGGSGGADDIVLTQSPATLSLSPGERATLSCRASQSVSYMNWYQQKPGKAPKRWIYDTSKVASGVPARFSGSGSGTDYSLTINSLEAEDAATYYCQQWSSNPLTFGGGTKVEIK
notes: Bispecific single chain antibody; anti-CEA part from mAb MFE-23; also called CEA III-LH
For B4, the binding result in assay [3] is recorded as “binds”.

B5: CEA II VHVL x SEQ ID NO. 77 VHVL (bispecific antibody)
chain: EVQLQQSGAELVEPGASVKLSCTASGFNIKDTYMHWVKQRPEQGLEWIGRIDPANGNSKYVPKFQGKATITADTSSNTAYLQLTSLTSEDTAVYYCAPFGYYVSDYAMAYWGQGTSVTVSSGGGGSGGGGSGGGGSDIVLTQSPASLAVSLGQRATMSCRAGESVDIFGVGFLHWYQQKPGQPPKLLIYRASNLESGIPVRFSGTGSRTDFTLIIDPVEADDVATYYCQQTNEDPYTFGGGTKLEIKSGGGGSDVQLVQSGAEVKKPGASVKVSCKASGYTFTRYTMHWVRQAPGQGLEWIGYINPSRGYTNYADSVKGRFTITTDKSTSTAYMELSSLRSEDTATYYCARYYDDHYCLDYWGQGTTVTVSSGEGTSTGSGGSGGSGGADDIVLTQSPATLSLSPGERATLSCRASQSVSYMNWYQQKPGKAPKRWIYDTSKVASGVPARFSGSGSGTDYSLTINSLEAEDAATYYCQQWSSNPLTFGGGTKVEIK
notes: Bispecific single chain antibody; anti-CEA part from mAb T84.66; also called CEA II HL
In the case of B5, the binding result in assay [2] is “binds”.

B6: SEQ ID NO. 77 VHVL x CEA I VHVL (bispecific antibody)
chain: DVQLVQSGAEVKKPGASVKVSCKASGYTFTRYTMHWVRQAPGQGLEWIGYINPSRGYTNYADSVKGRFTITTDKSTSTAYMELSSLRSEDTATYYCARYYDDHYCLDYWGQGTTVTVSSGEGTSTGSGGSGGSGGADDIVLTQSPATLSLSPGERATLSCRASQSVSYMNWYQQKPGKAPKRWIYDTSKVASGVPARFSGSGSGTDYSLTINSLEAEDAATYYCQQWSSNPLTFGGGTKVEIKSGGGGSQVQLQESGGGLVQPGGSLRLSCATSGFTFTDYYMNWVRQPPGKALEWLGFIGNKANGYTTEYSASVKGRFTISRDKSQSILYLQMNTLRAEDSATYYCTRDRGLRFYFDYWGQGTTVTVSSGGGGSGGGGSGGGGSDIELTQSPAILSASPGEKVTMTCRASSSVTYIHWYQQKPGSSPKSWIYATSNLASGVPARFSGSGSGTSYSLTISRVEAEDAATYYCQHWSSKPPTFGGGTKLEIK
notes: as for B2
In the case of B6, the binding result in assay [1] is on record as “binds”.

B7: CEA III VHVL x SEQ ID NO. 77 VHVL (bispecific antibody)
chain: QVKLQQSGAELVRSGTSVKLSCTASGFNIKDSYMHWLRQGPEQGLEWIGWIDPENGDTEYAPKFQGKATFTTDTSSNTAYLQLSSLTSEDTAVYYCNEGTPTGPYYFDYWGQGTTVTVSSGGGGSGGGGSGGGGSENVLTQSPAIMSASPGEKVTITCSASSSVSYMHWFQQKPGTSPKLWIYSTSNLASGVPARFSGSGSGTSYSLTISRMEAEDAATYYCQQRSSYPLTFGAGTKLELKSGGGGSDVQLVQSGAEVKKPGASVKVSCKASGYTFTRYTMHWVRQAPGQGLEWIGYINPSRGYTNYADSVKGRFTITTDKSTSTAYMELSSLRSEDTATYYCARYYDDHYCLDYWGQGTTVTVSSGEGTSTGSGGSGGSGGADDIVLTQSPATLSLSPGERATLSCRASQSVSYMNWYQQKPGKAPKRWIYDTSKVASGVPARFSGSGSGTDYSLTINSLEAEDAATYYCQQWSSNPLTFGGGTKVEIK
notes: Bispecific single chain antibody; anti-CEA part from mAb MFE-23; also called CEA III-HL
Turning to B7, the binding result in assay [2] is given as “binds”.
